Assay [1] addresses mouse CD73 (mouse) (UniProt Q61503). Nature of the assay: flow cytometry, murine E0771 breast cancer cells, isotype control; PE against SSC-A. (In general: A flow cytometer gives signals particle by particle.)
Assay [2] has as its target T1, human CD73 (human) (UniProt P21589).
T1 sequence: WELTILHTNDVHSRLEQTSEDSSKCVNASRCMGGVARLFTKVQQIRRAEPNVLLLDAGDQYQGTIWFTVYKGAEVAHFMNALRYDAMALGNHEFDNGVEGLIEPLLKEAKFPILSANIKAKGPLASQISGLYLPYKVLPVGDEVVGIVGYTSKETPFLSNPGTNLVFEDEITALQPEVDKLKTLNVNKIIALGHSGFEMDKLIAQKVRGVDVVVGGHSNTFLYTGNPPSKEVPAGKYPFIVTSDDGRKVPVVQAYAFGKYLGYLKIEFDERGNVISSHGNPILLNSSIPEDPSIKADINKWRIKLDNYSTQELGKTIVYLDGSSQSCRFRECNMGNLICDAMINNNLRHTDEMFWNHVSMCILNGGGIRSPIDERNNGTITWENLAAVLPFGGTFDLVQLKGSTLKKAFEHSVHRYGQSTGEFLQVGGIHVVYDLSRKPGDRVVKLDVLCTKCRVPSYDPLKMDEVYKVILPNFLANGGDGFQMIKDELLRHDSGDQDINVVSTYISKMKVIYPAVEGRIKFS
Briefly: flow cytometry, human PC3 prostate cancer cells, isotype control plot above the 2C5 plot (its gate is drawn larger than in the other plots); CD73-PE against SSC-A.

The target in assay [3] is T1, human CD73 (human). Nature of the assay: flow cytometry, human PC3 prostate cancer cells, isotype control plot above the E7 plot; CD73-PE against SSC-A.
Assay [4] deals with T1, human CD73 (human). Briefly: flow cytometry, human PC3 prostate cancer cells, 10 ug/ml antibody, PE anti-mIgG secondary antibody; CD73-PE against SSC-A.

The text below walks through data of US20240124606A1.

Sequence of UniProt Q61503 (Q61503 29-551 limits assumed): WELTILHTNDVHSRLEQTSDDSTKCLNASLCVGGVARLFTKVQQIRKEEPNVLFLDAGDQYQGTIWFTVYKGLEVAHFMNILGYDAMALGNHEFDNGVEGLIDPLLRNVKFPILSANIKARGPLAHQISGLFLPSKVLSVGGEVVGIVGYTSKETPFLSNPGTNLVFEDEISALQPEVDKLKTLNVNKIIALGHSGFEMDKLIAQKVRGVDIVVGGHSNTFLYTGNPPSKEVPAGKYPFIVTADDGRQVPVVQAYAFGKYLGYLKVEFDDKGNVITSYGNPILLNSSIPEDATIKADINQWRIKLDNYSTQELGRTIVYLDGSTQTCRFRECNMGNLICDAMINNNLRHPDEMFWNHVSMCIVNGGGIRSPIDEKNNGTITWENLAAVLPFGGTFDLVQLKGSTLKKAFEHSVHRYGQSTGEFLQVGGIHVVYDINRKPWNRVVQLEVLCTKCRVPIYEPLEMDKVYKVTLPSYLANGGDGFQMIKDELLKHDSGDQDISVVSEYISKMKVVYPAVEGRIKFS

In turn, Isotype (antibody) gave a percent of cells in the CD73 gate in assay [1] of 0.8. Further, the values for the percent of cells in the CD73-PE gate in assay [2] and in assay [3] were 2.84 and 1.02, respectively.

B1: 2C5 (a commercially-available anti-CD73 mAb, Astrazeneca) (antibody, from another filing, V domains shown)
VH: EVQLLESGGGLVQPGGSLRLSCAASGFTFSSYAMSWVRQAPGKGLEWVSAISGSGGSTYYADSVKRRFTISRDNSKNTLYLQMNSLRAEDTAVYYCARDKGYYWYMDVWGQGTMVTVSS
VL: QSVLTQPPSVSVSPGQTASITCSGDKVGDKYASWYQQKPGQSPVLVIYEDTKRLSGIPERFSGSNSGNTATLTISGTQAMDEADYYCQAWDTSFWVFGGGTKLTVL
On to B1, for which the percent of cells in the CD73-PE gate in assay [4] is 99.7.
